# Target: elastase enzyme
# Experiment: cell-based or functional assay
binder,measurement,value
Ac-ALHKVK-NH2 [Ac-Ala-Leu-His-Lys-Val-Lys-NH2],"percentage of elastase inhibition with regard to the positive control (PMSF = 100%), absorbance at 405 nm",~39 % of positive control

# Source: US20220062145A1 (LIPOTRUE S L, published 2022)
